Test results from article PMC4510984 (Nature, 2015).
Substitutions are numbered along the chain they refer to. Numbers in names are those of the source. Read-outs that look alike come from different tables or passages of the source.

B1: human phosphofructokinase-1, platelet isoform (PFKP), recombinant wild type (enzyme, UniProt Q01813-1 1-784, looked up)
chain: MDADDSRAPKGSLRKFLEHLSGAGKAIGVLTSGGDAQGMNAAVRAVVRMGIYVGAKVYFIYEGYQGMVDGGSNIAEADWESVSSILQVGGTIIGSARCQAFRTREGRLKAACNLLQRGITNLCVIGGDGSLTGANLFRKEWSGLLEELARNGQIDKEAVQKYAYLNVVGMVGSIDNDFCGTDMTIGTDSALHRIIEVVDAIMTTAQSHQRTFVLEVMGRHCGYLALVSALACGADWVFLPESPPEEGWEEQMCVKLSENRARKKRLNIIIVAEGAIDTQNKPITSEKIKELVVTQLGYDTRVTILGHVQRGGTPSAFDRILASRMGVEAVIALLEATPDTPACVVSLNGNHAVRLPLMECVQMTQDVQKAMDERRFQDAVRLRGRSFAGNLNTYKRLAIKLPDDQIPKTNCNVAVINVGAPAAGMNAAVRSAVRVGIADGHRMLAIYDGFDGFAKGQIKEIGWTDVGGWTGQGGSILGTKRVLPGKYLEEIATQMRTHSINALLIIGGFEAYLGLLELSAAREKHEEFCVPMVMVPATVSNNVPGSDFSIGADTALNTITDTCDRIKQSASGTKRRVFIIETMGGYCGYLANMGGLAAGADAAYIFEEPFDIRDLQSNVEHLTEKMKTTIQRGLVLRNESCSENYTTDFIYQLYSEEGKGVFDCRKNVLGHMQQGGAPSPFDRNFGTKISARAMEWITAKLKEARGRGKKFTTDDSICVLGISKRNVIFQPVAELKKQTDFEHRIPKEQWWLKLRPLMKILAKYKASYDVSDSGQLEHVQPWSV
B2: PFKP-F649L (enzyme, human, UniProt Q01813-1 1-784, looked up)
chain: B1 chain with F649L

How the values were obtained:
Test in all cases: transmission electron microscopy
[1] = target: the molecule itself
[2] = target: the molecule itself; remark: listed apart in the source
[3] = target: the molecule itself; remark: listed apart in the source

Row | Protein | stoichiometry N [1] | stoichiometry N [2] | stoichiometry N [3]
1 | B1 | 4 | 2 | 
2 | B2 |  |  | 2
